The term Kd denotes the equilibrium constant for the complex coming apart. Lower therefore signals higher affinity. By koff is commonly meant the rate constant with which the complex falls apart. A higher koff goes with a short-lived complex.

The target in the test is protein kinase A catalytic (C) subunit, wild type (UniProt P05132 2-351). The experiment in a line: SPR.

B1: RIIβAB, truncated PKA regulatory subunit RIIβ (domain or fragment)
chain: TRRASVCAEAYNPDEEEDDAESRIIHPKTDDQRNRLQEACKDILLFKNLDPEQMSQVLDAMFEKLVKEGEHVIDQGDDGDNFYVIDRGTFDIYVKCDGVGRCVGNYDNRGSFGELALMYNTPRAATITATSPGALWGLDRVTFRRIIVKNNAKKRKMYESFIESLPFLKSLEVSERLKVVDVIGTKVYNDGEQIIAQGDSADSFFIVESGEVRITMKRKGKSDIEENGAVEIARCLRGQYFGELALVTNKPRAASAHAIGTVKCLAMDVQAFERLLGPCMEIMKRNIATYEEQLV
B1: the Kd was found to be 2.9 nM and the koff came out at 0.000316 s⁻¹.

For the origin of these results see publication PMC2791020 (The Journal of Biological Chemistry, 2009).
